± gives the uncertainty stated by the source.
Test: self-splicing fitness, log relative to wild type (ln ratio); higher = more splicing; Tetrahymena group I intron in knt gene, E. coli kanamycin selection, DiMSum; sequences stand for … in CUCUCU…GGAGGGAAAAGUUAUCAGGCAUGCACCUGGUAGCUAGUCUUUAAACCAAUAGAUUGCAUCGGUUUAAAAGGCAAGACCGUCAAAUUGCGGGAAAGGGGUCAACAGCCGUUCAGUACCAAGUCUCAGGGGAAACUUUGAGAUGGCCUUGCAAAGGGUAUGGUAAUAAGCUGACGGACAUGGUCCUAACCACGCAGCCAAGUCCUAAGUCAACAGAUCUUCUGUUGAUAUGGAUGCAGUUCACAGACUAAAUGUCGGUCGGGGAAGAUGUAUUCUUCUCAUAAGAUAUAGUCGGACCUCUCCUUAAUGGGAGCUAGCGGAUGAAGUGAUGCAACACUGGAGCCGCUGGGAACUAAUUUGUAUGCGAAAGUAUAUUGAUUAGUUUUGGAGUACUCGUGGUCG
How it was run: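 Six replicate transformations of E. coli BL21(DE3) with a pET-22b(+) library were grown overnight at 37°C or 30°C. The library randomised all eight P1ex-region intron nucleotides, the intron lying in the knt kanamycin-resistance gene, and plates were LB agar with or without 25 μg/mL kanamycin plus 100 μg/mL carbenicillin, 50 μM IPTG and 0.2% rhamnose. Pooled colonies were amplicon-sequenced on an Illumina HiSeq 2500, and fitness is the DiMSum error-weighted combination of wild-type-normalised replicate fold changes, kanamycin versus none.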

Row | Sequence | self-splicing fitness (ln) (30 °C) | self-splicing fitness (ln) (37 °C)
1 | CGCUAGCAAUAUUACGUAUC | -3.84 ± 0.33 | -2.76 ± 0.31
2 | CGCUAGCAAUAUUACGUCCU | -1.59 ± 0.15 | -1.45 ± 0.17
3 | CGGAAGCAAUAUUACGAAAU | -3.59 ± 0.45 | -2.96 ± 0.31
4 | CGGAAGCAAUAUUACGAACU | -1.04 ± 0.1 | -0.0975 ± 0.12
5 | CGGAAGCAAUAUUACGAAUA | -2.53 ± 0.39 | –
6 | CGGAAGCAAUAUUACGAGCC | -2.13 ± 0.23 | -0.454 ± 0.22
7 | CGGAAGCAAUAUUACGCGCA | -1.9 ± 0.11 | -1.08 ± 0.094
8 | CGGAAGCAAUAUUACGCGGA | -2.73 ± 0.28 | -2.93 ± 0.43
9 | CGGAAGCAAUAUUACGCUCG | -3.42 ± 0.21 | -1.97 ± 0.23
10 | CGGAAGCAAUAUUACGGACG | -3 ± 0.27 | -2.12 ± 0.44
11 | CGGAAGCAAUAUUACGGACU | -0.00733 ± 0.094 | -0.0682 ± 0.14
12 | CGGAAGCAAUAUUACGGAGC | -2.75 ± 0.26 | -1.88 ± 0.36
13 | CGGAAGCAAUAUUACGGAUG | -2.02 ± 0.073 | -0.785 ± 0.086
14 | CGGAAGCAAUAUUACGGCCU | 0.133 ± 0.15 | 0.152 ± 0.16
15 | CGGAAGCAAUAUUACGGGGA | -3.79 ± 0.26 | -2.65 ± 0.31
16 | CGGAAGCAAUAUUACGGUGA | -1.64 ± 0.16 | -2.07 ± 0.22
17 | CGGAAGCAAUAUUACGUAAU | -2.35 ± 0.19 | -1.23 ± 0.19
18 | CGGAAGCAAUAUUACGUCAC | – | -1.76 ± 0.4
19 | CGGAAGCAAUAUUACGUCUA | -0.422 ± 0.097 | -0.659 ± 0.076
20 | CGGAAGCAAUAUUACGUUAA | -3.47 ± 0.36 | -3.06 ± 0.25
21 | CGGAAGCAAUAUUACGUUCA | -0.293 ± 0.13 | 0.673 ± 0.16
22 | CGGCAGCAAUAUUACGAAGG | -1.13 ± 0.12 | 0.373 ± 0.17
23 | CGGCAGCAAUAUUACGACAU | -3.303 ± 0.021 | -1.91 ± 0.035
24 | CGGCAGCAAUAUUACGACCG | -3.76 ± 0.31 | –
25 | CGGCAGCAAUAUUACGAGCU | -2.8 ± 0.17 | -1.55 ± 0.14

Row | Sequence | self-splicing fitness (ln) (30 °C) | self-splicing fitness (ln) (37 °C)
26 | CGGCAGCAAUAUUACGAGGU | -3.26 ± 0.19 | -1.83 ± 0.15
27 | CGGCAGCAAUAUUACGAUUG | -0.72 ± 0.055 | 0.0589 ± 0.08
28 | CGGCAGCAAUAUUACGAUUU | -3.18 ± 0.22 | -2.64 ± 0.23
29 | CGGCAGCAAUAUUACGCAUG | -2.27 ± 0.074 | -1.05 ± 0.082
30 | CGGCAGCAAUAUUACGCGGC | -2.84 ± 0.27 | -3.03 ± 0.26
31 | CGGCAGCAAUAUUACGCGUA | -1.97 ± 0.29 | -0.576 ± 0.16
32 | CGGCAGCAAUAUUACGCUCC | -4.03 ± 0.39 | -1.08 ± 0.25
33 | CGGCAGCAAUAUUACGCUCG | – | -2.93 ± 0.32
34 | CGGCAGCAAUAUUACGCUUA | -0.963 ± 0.071 | -0.184 ± 0.073
35 | CGGCAGCAAUAUUACGGAUC | -2.88 ± 0.27 | -2.04 ± 0.2
36 | CGGCAGCAAUAUUACGGAUG | -0.873 ± 0.075 | 0.507 ± 0.11
37 | CGGCAGCAAUAUUACGGCCA | -0.0175 ± 0.12 | 0.462 ± 0.16
38 | CGGCAGCAAUAUUACGGCCC | -1.31 ± 0.27 | 0.163 ± 0.21
39 | CGGCAGCAAUAUUACGGCGU | -1.6 ± 0.097 | -0.949 ± 0.1
40 | CGGCAGCAAUAUUACGGCUC | -0.945 ± 0.11 | -0.28 ± 0.15
41 | CGGCAGCAAUAUUACGGGAC | – | -2.85 ± 0.47
42 | CGGCAGCAAUAUUACGGGCC | -1.55 ± 0.2 | -1.98 ± 0.32
43 | CGGCAGCAAUAUUACGGUAG | -0.745 ± 0.076 | -0.0175 ± 0.074
44 | CGGCAGCAAUAUUACGGUCU | -0.384 ± 0.066 | 0.364 ± 0.087
45 | CGGCAGCAAUAUUACGGUGA | -3.35 ± 0.21 | -1.75 ± 0.17
46 | CGGCAGCAAUAUUACGGUGC | -2.88 ± 0.16 | -2.18 ± 0.19
47 | CGGCAGCAAUAUUACGGUUG | -2.93 ± 0.14 | -1.11 ± 0.12
48 | CGGCAGCAAUAUUACGUCGA | -3.24 ± 0.19 | -1.07 ± 0.15
49 | CGGCAGCAAUAUUACGUCGC | – | -0.603 ± 0.28
50 | CGGCAGCAAUAUUACGUGAC | -3.9 ± 0.13 | -1.22 ± 0.1
